# In PMC12680531 (2026):
# No end group written: not given here.
# Target: 12A8
# Assay: SPR
binder,measurement,value
"TWGYPFHDGDYLNDE (also: biotin, position not given here, GSAGGS spacer, position not given here) [biotinylated hTM4SF4 (T126-E140) peptide containing a GSAGGS spacer]",Kd,8.34 nM
